Results: PMC4829420, “The innate immune sensor IFI16 recognizes foreign DNA in the nucleus by scanning along the duplex” (eLife, 2015)

Target: the molecule itself
Assay: single-molecule fluorescence imaging (TIRF) with intensity analysis; Cy5-labelled IFI16 (3 to 5 nM) supplied under constant flow (20 ul/min) to single-biotinylated lambda dsDNA anchored on a coverslip; number of molecules per cluster from particle intensity against single molecules at 1 nM; 40 mM HEPES pH 7.4, 160 mM KCl, 1 mM EDTA, 2 mM DTT, 10% glycerol, 0.1% Triton-X100, 250 ug/ml BSA; room temperature

B1: Human full-length IFI16 (interferon-inducible protein 16) (natural protein, UniProt Q16666 1-785, looked up)
chain: MGKKYKNIVLLKGLEVINDYHFRMVKSLLSNDLKLNLKMREEYDKIQIADLMEEKFRGDAGLGKLIKIFEDIPTLEDLAETLKKEKLKVKGPALSRKRKKEVDATSPAPSTSSTVKTEGAEATPGAQKRKKSTKEKAGPKGSKVSEEQTQPPSPAGAGMSTAMGRSPSPKTSLSAPPNSSSTENPKTVAKCQVTPRRNVLQKRPVIVKVLSTTKPFEYETPEMEKKIMFHATVATQTQFFHVKVLNTSLKEKFNGKKIIIISDYLEYDSLLEVNEESTVSEAGPNQTFEVPNKIINRAKETLKIDILHKQASGNIVYGVFMLHKKTVNQKTTIYEIQDDRGKMDVVGTGQCHNIPCEEGDKLQLFCFRLRKKNQMSKLISEMHSFIQIKKKTNPRNNDPKSMKLPQEQRQLPYPSEASTTFPESHLRTPQMPPTTPSSSFFTKKSEDTISKMNDFMRMQILKEGSHFPGPFMTSIGPAESHPHTPQMPPSTPSSSFLTTKSEDTISKMNDFMRMQILKEGSHFPGPFMTSIGPAESHPHTPQMPPSTPSSSFLTTLKPRLKTEPEEVSIEDSAQSDLKEVMVLNATESFVYEPKEQKKMFHATVATENEVFRVKVFNIDLKEKFTPKKIIAIANYVCRNGFLEVYPFTLVADVNADRNMEIPKGLIRSASVTPKINQLCSQTKGSFVNGVFEVHKKNVRGEFTYYEIQDNTGKMEVVVHGRLTTINCEEGDKLKLTCFELAPKSGNTGELRSVIHSHIKVIKTRKNKKDILNPDSSMETSPDFFF
modifications: DyLight-550, DyLight-650 or Cy5 fluorophore incorporated by maleimide chemistry; label to protein ratio ~1:1
notes: interferon-inducible protein 16 (IFI16), human, full length; FRET assays mixed DyLight-550 and DyLight-650 labelled protein 1:1; microscopy used Cy5-labelled protein; also called IFI16-550; IFI16-650; source: E. coli T7 express cells (NEB), as described in Morrone et al., 2014
  stoichiometry N: ≥ 8 protomers per cluster
